What all share (details): other: capillary electrophoresis
The target of data set [1] is WT Cu, Zn superoxide dismutase-1 (SOD1), recombinant human (UniProt P00441). Kind of data set: capillary electrophoresis; both homodimers as 4Zn-SOD1; 15 μM dimer each ([SOD1]total = 30 μM), followed over time; 10 mM potassium phosphate pH 7.4, CE at 22 °C, storage at 15 °C; KHet assumed from the fit extrapolated to t = 5000 min.
The target is the same in data set [2]. As to the kind of experiment: capillary electrophoresis; both homodimers apo (metal-free, disulfide intact), mixed at 15 μM dimer each ([SOD1]total = 30 μM), followed over time; 10 mM potassium phosphate pH 7.4, CE at 22 °C, storage at 15 °C; KHet assumed from the fit extrapolated to t = 5000 min.
Data set [3] has the same target. As to the kind of experiment: capillary electrophoresis; binder (first named) as 4Zn-SOD1, target (second named, WT or TD) as apo-SOD1; 15 μM dimer each ([SOD1]total = 30 μM), followed over time; 10 mM potassium phosphate pH 7.4, CE at 22 °C, storage at 15 °C; KHet assumed from the fit extrapolated to t = 5000 min.
The target is the same in data set [4]. Kind of data set: capillary electrophoresis; binder (first named) as apo-SOD1, target (second named, WT or TD) as 4Zn-SOD1; 15 μM dimer each ([SOD1]total = 30 μM), followed over time; 10 mM potassium phosphate pH 7.4, CE at 22 °C, storage at 15 °C; KHet assumed from the fit extrapolated to t = 5000 min.

Sequence of WT Cu, Zn superoxide dismutase-1 (SOD1), recombinant human (P00441 whole entry): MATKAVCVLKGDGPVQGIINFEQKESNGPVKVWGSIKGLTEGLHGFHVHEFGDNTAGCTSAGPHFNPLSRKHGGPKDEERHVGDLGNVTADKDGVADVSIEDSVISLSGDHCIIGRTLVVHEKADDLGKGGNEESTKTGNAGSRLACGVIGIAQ
Sequence of triply deamidated SOD1 (modeled with N26D/N131D/N139D substitutions), recombinant human (chain, as listed by the source N26D N131D N139D): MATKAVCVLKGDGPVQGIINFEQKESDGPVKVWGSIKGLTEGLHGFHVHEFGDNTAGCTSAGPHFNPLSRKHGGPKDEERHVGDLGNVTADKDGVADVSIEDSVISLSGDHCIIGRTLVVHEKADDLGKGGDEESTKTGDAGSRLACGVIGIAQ

Turning to “triply deamidated SOD1 (modeled with N26D/N131D/N139D substitutions), recombinant human”, the t30% (time to reach 30% heterodimer) in data set [1] was 339 min; in data set [2], 85.8 min; in data set [3], 297 min; in data set [4], 188 min.

The record behind these values is PMC9667317.
